From patent US20160041182A1 (Janssen / Centocor, published 2016)
Numbering of substitutions follows the chain as printed.

Key:
mouse IL-17A [1] = molecular target: T1, mouse IL-17A (mouse, UniProt Q62386 26-158, limits assumed); assay: SPR (ProteOn XPR-36), clone amine-coupled on chip, mIL-17A in solution, 1:1 Langmuir fit
T1 construct: In SPR it was injected in solution, and no biotinylation is mentioned there; also called mIL-17A; mIL17A
T1 sequence (looked up): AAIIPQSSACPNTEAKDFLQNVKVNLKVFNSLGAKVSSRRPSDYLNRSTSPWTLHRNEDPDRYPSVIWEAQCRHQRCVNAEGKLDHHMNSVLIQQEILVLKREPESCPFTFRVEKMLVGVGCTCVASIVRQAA
Protocol: The affinities of select molecules binding to mIL-17A were measured using surface Plasmon resonance using a ProteOn XPR-36 instrument (Bio-Rad). Purified molecules were directly immobilized on the chip via amine coupling with varying densities (100˜300 Rus) at pH 5.0 and a flow rate of 30 μL/min for 5 minutes mIL-17A at 100 nM diluted in a 3-fold concentration series was tested for their binding to different molecules on the chip surface. The dissociation phases for all concentrations of all samples was monitored for 1˜2 hours at a flow rate of 100 μL/min depending on their off-rate. A buffer sample was injected to monitor the baseline stability and the surface was not regenerated for further use. The response data for all concentration series for each of the different surfaces of the scaffold molecules selected from the TLC14 library were globally fit to a 1:1 simple langmuir binding model to extract estimates of the kinetic (kₒₙ, koff) and affinity (KD) constants. As summarized in Table 9, affinities of the scaffold molecules specifically binding mIL-17A were at a subnanomolar range. Sequences of select mIL-17A binders are shown in SEQ ID NOS: 85-96, and the sequences of the C and F beta-strands and the CD and the FG loops in Table 10.

mouse IL-17A [2] = molecular target: T1, mouse IL-17A; assay: competition ELISA: purified His-tagged clone against biotinylated mIL-17A binding to coated mIL-17A receptor Fc
Protocol: An inhibition assay was performed to determine if the round 5 and 9 panning outputs against mouse IL-17A (mIL-17A) inhibited binding of mIL-17A to the mIL-17A receptor. Maxisorp plates were coated with 0.2 μg/ml mIL-17A receptor Fc fusion (R&D Systems, Minneapolis, Minn.) overnight, washed with Phosphate-Buffered Saline (PBS), pH 7.4 with 0.05% Tween-20 […] and blocked with 2% BSA, 5% Sucrose in PBS. 10 ng/ml biotinylated-mIL17A (b-mIL-17A) was added into the clarified bacterial lysates diluted 1:50 in 1% BSA in PBS, and the mixtures were incubated for 20 minutes. The blocked plates were washed and the bacterial lysates/b-mIL-17A incubations were transferred onto the plates. The plates were incubated for an additional hour, washed with PB ST, and the biotinylated protein detected with streptavidin-HRP (Jackson Immunoresearch, West Grove, Pa.) and OPD colorimetric substrate (Sigma-Aldrich, St. Louis, Mo.). Absorbance at 490 nm was read using an M5 plate reader (Molecular Devices, Sunnyvale, Calif.) and the data converted to % inhibition. Percent inhibition for mIL-17A:mIL-17 receptor binding was defined as 100−(sample/negative control×100).
Select bacterial lysates containing the scaffold molecules inhibiting the mIL-17A:mIL-17 receptor interaction were further characterized in a dose response inhibition assay using the protocol described above, except that 100 μl of purified TCL14-His (Ni-NTA) fusion proteins were used in the assays between concentrations of 10 μM to 56 pM. IC50 values were calculated from the dose response curves using a sigmoidal dose response fit.

B1: TP1KR9P62-D3 (designed binder)
chain: MLPAPKNLVVSRVTEDSARLSWTAPDAAFDSFAIEYFEDWWSGEAIVLTVPGSERSYDLTLKPGTEYSVSIRGVKGGYPSSPLSAIFTT
notes: also called TCL14-His fusion protein
In the case of B1, the Kd (mouse IL-17A [1]) is reported as 0.554 nM, the koff (mouse IL-17A [1]) is reported as 6.07e-05 s⁻¹ and the kon (mouse IL-17A [1]) is reported as 110000 M⁻¹ s⁻¹. The IC50 (mouse IL-17A [2]) was 0.0912 nM.

B2: TP1KR9P61-G4 (designed binder)
chain: MLPAPKNLVVSRVTEDSARLSWTAPDAAFDSFAIEYFEDWWSGEAIVLTVPGSERSYDLTGLKPGTEYAVSIRGVKGGYPSAPLSAIFTT
notes: as for B1
B2 was tested, and the Kd (mouse IL-17A [1]) was 0.309 nM, the koff (mouse IL-17A [1]) was 5.02e-05 s⁻¹ and the kon (mouse IL-17A [1]) was 162000 M⁻¹ s⁻¹. It also gave an IC50 (mouse IL-17A [2]) of 0.00883 nM.

B3: TP1KR9P61-A2 (designed binder)
chain: B2 chain with Y79M
notes: as for B1
For B3, the Kd (mouse IL-17A [1]) was 0.287 nM, the koff (mouse IL-17A [1]) was 3.93e-05 s⁻¹ and the kon (mouse IL-17A [1]) was 137000 M⁻¹ s⁻¹. It also gave an IC50 (mouse IL-17A [2]) of 0.0339 nM.

B4: TP1KR9P62-C6 (designed binder)
chain: B2 chain with Y57C, A69S, S71T, A82S
notes: as for B1
B4 was tested, and the Kd (mouse IL-17A [1]) was 0.0212 nM, the koff (mouse IL-17A [1]) was 1.2e-05 s⁻¹ and the kon (mouse IL-17A [1]) was 568000 M⁻¹ s⁻¹. For the same binder, the IC50 (mouse IL-17A [2]) was 0.109 nM.

B5: TP1KR9P62-D4 (designed binder)
chain: B2 chain with A33G, E35I, S42A, A69G, Y79P, A82R
notes: as for B1
With B5 the Kd (mouse IL-17A [1]) was ≤ 0.0952 nM, the koff (mouse IL-17A [1]) was ≤ 1e-05 s⁻¹ and the kon (mouse IL-17A [1]) was 105000 M⁻¹ s⁻¹. It also gave an IC50 (mouse IL-17A [2]) of 0.242 nM.

B6: TP1KR9P62-D8 (designed binder)
chain: B2 chain with A69G, Y79L, P80A, A82P
notes: as for B1
B6 gave a Kd (mouse IL-17A [1]) of 0.0389 nM, a koff (mouse IL-17A [1]) of 1.48e-05 s⁻¹ and a kon (mouse IL-17A [1]) of 381000 M⁻¹ s⁻¹. It also gave an IC50 (mouse IL-17A [2]) of 0.427 nM.

B7: TP1KR9P61-A7 (designed binder)
chain: B2 chain with A69S, A82S
notes: as for B1
Binder B7 has a Kd (mouse IL-17A [1]) of 0.421 nM, a koff (mouse IL-17A [1]) of 3.46e-05 s⁻¹ and a kon (mouse IL-17A [1]) of 82000 M⁻¹ s⁻¹. For the same binder, the IC50 (mouse IL-17A [2]) was 0.0558 nM.

B8: TP1KR9P62-A2 (designed binder)
chain: B2 chain with P5L, R19H, F37S, W40Y, S42L, A69G, A82P
notes: as for B1
Work on B8 yielded a Kd (mouse IL-17A [1]) of 0.0531 nM, a koff (mouse IL-17A [1]) of 2.17e-05 s⁻¹ and a kon (mouse IL-17A [1]) of 408000 M⁻¹ s⁻¹. It also gave an IC50 (mouse IL-17A [2]) of 0.261 nM.

B9: TP1KR9P61-E2 (designed binder)
chain: B2 chain with Y79M, A82P
notes: as for B1
B9 gave a Kd (mouse IL-17A [1]) of 0.27 nM, a koff (mouse IL-17A [1]) of 3.96e-05 s⁻¹ and a kon (mouse IL-17A [1]) of 147000 M⁻¹ s⁻¹. The IC50 (mouse IL-17A [2]) was 0.0428 nM.

B10: TP1KR9P62-C3 (designed binder)
chain: B2 chain with A69S, S71T, Y79P, A82S
notes: as for B1
With B10 the Kd (mouse IL-17A [1]) was 0.0374 nM, the koff (mouse IL-17A [1]) was 1.05e-05 s⁻¹ and the kon (mouse IL-17A [1]) was 281000 M⁻¹ s⁻¹. The IC50 (mouse IL-17A [2]) was 0.117 nM.

B11: TP1KR9P62-H10 (designed binder)
chain: B2 chain with A69S, Y79H, A82V
notes: as for B1
Binder B11 has a Kd (mouse IL-17A [1]) of 0.0482 nM, a koff (mouse IL-17A [1]) of 2.11e-05 s⁻¹ and a kon (mouse IL-17A [1]) of 438000 M⁻¹ s⁻¹. For the same binder, the IC50 (mouse IL-17A [2]) was 0.302 nM.

B12: TP1KR9P62-E3 (designed binder)
chain: B2 chain with A33G, W40Y, S42T
notes: as for B1
Work on B12 yielded a Kd (mouse IL-17A [1]) of 0.464 nM, a koff (mouse IL-17A [1]) of 5.26e-05 s⁻¹ and a kon (mouse IL-17A [1]) of 113000 M⁻¹ s⁻¹. The IC50 (mouse IL-17A [2]) was 0.0642 nM.
